Assay results reported in the supplement of paper PMC5998384.

Legend:
HeLa Kyoto [1] = assay: solubility in G1/S (NP-40 vs SDS abundance) (log2 ratio); higher = more soluble; details: cell cycle stage: G1/S
HeLa Kyoto [2] = assay: melting temperature (median over replicates), in situ; higher = more thermally stable
HeLa Kyoto [3] = assay: solubility change mitosis vs G1/S (difference of NP-40 vs SDS log2 ratios) (log2 ratio difference); higher = more soluble in mitosis
HeLa Kyoto [4] = assay: thermal stability score vs G1/S (z-score of summed log2 fold changes over temperatures); higher = more thermally stable than in G1/S
[5] = cell cycle stage: early G1 (4.5 h after nocodazole release)
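Wherever melting temperature (median over replicates), in situ is given: HeLa Kyoto cells synchronized by double thymidine or nocodazole block, proteins quantified by TMT10plex mass spectrometry, three independent biological replicates.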
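Wherever solubility change mitosis vs G1/S (difference of NP-40 vs SDS log2 ratios) is given: synchronized HeLa Kyoto cells (double thymidine block for G1/S, nocodazole release for mitosis), protein amounts in NP-40 versus SDS lysates quantified by mass spectrometry, three biological replicates.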
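Wherever solubility in G1/S (NP-40 vs SDS abundance) is given: HeLa Kyoto cells arrested at G1/S by double thymidine block, proteins quantified by TMT10plex mass spectrometry in mild NP-40 versus SDS extracts, three biological replicates.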
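Wherever thermal stability score vs G1/S (z-score of summed log2 fold changes over temperatures) is given: synchronized HeLa Kyoto cells, proteins quantified by TMT10plex mass spectrometry, three biological replicates, mitosis taken 0.5 h after nocodazole release, G1/S directly after double thymidine block.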

| Substance | solubility in G1/S (log2) (HeLa Kyoto [1]) | melting temperature (HeLa Kyoto [2]; cell cycle stage: G1/S) [°C] | melting temperature (HeLa Kyoto [2]; cell cycle stage: mitosis) [°C] | solubility change mitosis (log2) (HeLa Kyoto [3]) | thermal stability score (HeLa Kyoto [4]; [5]) | thermal stability score (HeLa Kyoto [4]; cell cycle stage: mitosis) |
| --- | --- | --- | --- | --- | --- | --- |
| MEPATAPRPDMAPELTPEEEQATKQFLEEINKWTVQYNVSPLSWNVAVKFLMARKFDVLRAIELFHSYRETRRKEGIVKLKPHEEPLRSEILSGKFTILNVRDPTGASIALFTARLHHPHKSVQHVVLQALFYLLDRAVDSFETQRNGLVFIYDMCGSNYANFELDLGKKVLNLLKGAFPARLKKVLIVGAPIWFRVPYSIISLLLKDKVRERIQILKTSEVTQHLPRECLPENLGGYVKIDLATWNFQFLPQVNGHPDPFDEIILFSLPPALDWDSVHVPGPHAMTIQELVDYVNARQKQGIYEEYEDIRRENPVGTFHCSMSPGNLEKNRYGDVPCLDQTRVKLTKRSGHTQTDYINASFMDGYKQKNAYIGTQGPLENTYRDFWLMVWEQKVLVIVMTTRFEEGGRRKCGQYWPLEKDSRIRFGFLTVTNLGVENMNHYKKTTLEIHNTEERQKRQVTHFQFLSWPDYGVPSSAASLIDFLRVVRNQQSLAVSNMGARSKGQCPEPPIVVHCSAGIGRTGTFCSLDICLAQLEELGTLNVFQTVSRMRTQRAFSIQTPEQYYFCYKAILEFAEKEGMVSSGQNLLAVESQ [PTPN9] | -0.0379 | 51.1 | 51.7 | -0.094 | 1.02 | -0.717 |
| MSLTSSSSVRVEWIAAVTIAAGTAAIGYLAYKRFYVKDHRNKAMINLHIQKDNPKIVHAFDMEDLGDKAVYCRCWRSKKFPFCDGAHTKHNEETGDNVGPLIIKKKET [CISD1] | 0.633 | 57.1 | 55.3 | 0.0262 | -0.277 | -1.59 |
| MDWLMGKSKAKPNGKKPAAEERKAYLEPEHTKARITDFQFKELVVLPREIDLNEWLASNTTTFFHHINLQYSTISEFCTGETCQTMAVCNTQYYWYDERGKKVKCTAPQYVDFVMSSVQKLVTDEDVFPTKYGREFPSSFESLVRKICRHLFHVLAHIYWAHFKETLALELHGHLNTLYVHFILFAREFNLLDPKETAIMDDLTEVLCSGAGGVHSGGSGDGAGSGGPGAQNHVKER [MOB2] | -0.0333 | 50.1 | – | 0.0638 | 0.797 | 0.832 |
| MAAAAQLSLTQLSSGNPVYEKYYRQVDTGNTGRVLASDAAAFLKKSGLPDLILGKIWDLADTDGKGILNKQEFFVALRLVACAQNGLEVSLSSLNLAVPPPRFHDTSSPLLISGTSAAELPWAVKPEDKAKYDAIFDSLSPVNGFLSGDKVKPVLLNSKLPVDILGRVWELSDIDHDGMLDRDEFAVAMFLVYCALEKEPVPMSLPPALVPPSKRKTWVVSPAEKAKYDEIFLKTDKDMDGFVSGLEVREIFLKTGLPSTLLAHIWSLCDTKDCGKLSKDQFALAFHLISQKLIKGIDPPHVLTPEMIPPSDRASLQKNIIGSSPVADFSAIKELDTLNNEIVDLQREKNNVEQDLKEKEDTIKQRTSEVQDLQDEVQRENTNLQKLQAQKQQVQELLDELDEQKAQLEEQLKEVRKKCAEEAQLISSLKAELTSQESQISTYEEELAKAREELSRLQQETAELEESVESGKAQLEPLQQHLQDSQQEISSMQMKLMEMKDLENHNSQLNWCSSPHSILVNGATDYCSLSTSSSETANLNEHVEGQSNLESEPIHQESPARSSPELLPSGVTDENEVTTAVTEKVCSELDNNRHSKEEDPFNVDSSSLTGPVADTNLDFFQSDPFVGSDPFKDDPFGKIDPFGGDPFKGSDPFASDCFFRQSTDPFATSSTDPFSAANNSSITSVETLKHNDPFAPGGTVVAASDSATDPFASVFGNESFGGGFADFSTLSKVNNEDPFRSATSSSVSNVVITKNVFEETSVKSEDEPPALPPKIGTPTRPCPLPPGKRSINKLDSPDPFKLNDPFQPFPGNDSPKEKDPEIFCDPFTSATTTTNKEADPSNFANFSAYPSEEDMIEWAKRESEREEEQRLARLNQQEQEDLELAIALSKSEISEA [EPS15] | 0.2 | 51 | 51.5 | -0.117 | 0.399 | 1.19 |
| CLTC | -0.168 | 51.4 | 50.6 | -0.171 | -1.37 | 1.15 |
| MDVENEQILNVNPADPDNLSDSLFSGDEENAGTEEIKNEINGNWISASSINEARINAKAKRRLRKNSSRDSGRGDSVSDSGSDALRSGLTVPTSPKGRLLDRRSRSGKGRGLPKKGGAGGKGVWGTPGQVYDVEEVDVKDPNYDDDQENCVYETVVLPLDERAFEKTLTPIIQEYFEHGDTNEVAEMLRDLNLGEMKSGVPVLAVSLALEGKASHREMTSKLLSDLCGTVMSTTDVEKSFDKLLKDLPELALDTPRAPQLVGQFIARAVGDGILCNTYIDSYKGTVDCVQARAALDKATVLLSMSKGGKRKDSVWGSGGGQQSVNHLVKEIDMLLKEYLLSGDISEAEHCLKELEVPHFHHELVYEAIIMVLESTGESTFKMILDLLKSLWKSSTITVDQMKRGYERIYNEIPDINLDVPHSYSVLERFVEECFQAGIISKQLRDLCPSRGRKRFVSEGDGGRLKPESY [PDCD4] | 0.349 | 48.8 | – | -0.495 | 1.91 | 4.21 |
| MAVFDTPEEAFGVLRPVCVQLTKTQTVENVEHLQTRLQAVSDSALQELQQYILFPLRFTLKTPGPKRERLIQSVVECLTFVLSSTCVKEQELLQELFSELSACLYSPSSQKPAAVSEELKLAVIQGLSTLMHSAYGDIILTFYEPSILPRLGFAVSLLLGLAEQEKSKQIKIAALKCLQVLLLQCDCQDHPRSLDELEQKQLGDLFASFLPGISTALTRLITGDFKQGHSIVVSSLKIFYKTVSFIMADEQLKRISKVQAKPAVEHRVAELMVYREADWVKKTGDKLTILIKKIIECVSVHPHWKVRLELVELVEDLLLKCSQSLVECAGPLLKALVGLVNDESPEIQAQCNKVLRHFADQKVVVGNKALADILSESLHSLATSLPRLMNSQDDQGKFSTLSLLLGYLKLLGPKINFVLNSVAHLQRLSKALIQVLELDVADIKIVEERRWNSDDLNASPKTSATQPWNRIQRRYFRFFTDERIFMLLRQVCQLLGYYGNLYLLVDHFMELYHQSVVYRKQAAMILNELVTGAAGLEVEDLHEKHIKTNPEELREIVTSILEEYTSQENWYLVTCLETEEMGEELMMEHPGLQAITSGEHTCQVTSFLAFSKPSPTICSMNSNIWQICIQLEGIGQFAYALGKDFCLLLMSALYPVLEKAGDQTLLISQVATSTMMDVCRACGYDSLQHLINQNSDYLVNGISLNLRHLALHPHTPKVLEVMLRNSDANLLPLVADVVQDVLATLDQFYDKRAASFVSVLHALMAALAQWFPDTGNLGHLQEQSLGEEGSHLNQRPAALEKSTTTAEDIEQFLLNYLKEKDVADGNVSDFDNEEEEQSVPPKVDENDTRPDVEPPLPLQIQIAMDVMERCIHLLSDKNLQIRLKVLDVLDLCVVVLQSHKNQLLPLAHQAWPSLVHRLTRDAPLAVLRAFKVLRTLGSKCGDFLRSRFCKDVLPKLAGSLVTQAPISARAGPVYSHTLAFKLQLAVLQGLGPLCERLDLGEGDLNKVADACLIYLSVKQPVKLQEAARSVFLHLMKVDPDSTWFLLNELYCPVQFTPPHPSLHPVQLHGASGQQNPYTTNVLQLLKELQ [TTI1] | -0.12 | 49.6 | 49.9 | -0.179 | 0.152 | 0.696 |
| MGLLRGGLPCARAMARLGAVRSHYCALLLAAALAVCAFYYLGSGRETFSSATKRLKEARAGAPAAPSPPALELARGSVAPAPGAKAKSLEGGGAGPVDYHLLMMFTKAEHNAALQAKARVALRSLLRLAKFEAHEVLNLHFVSEEASREVAKGLLRELLPPAAGFKCKVIFHDVAVLTDKLFPIVEAMQKHFSAGLGTYYSDSIFFLSVAMHQIMPKEILQIIQLDLDLKFKTNIRELFEEFDSFLPGAIIGIAREMQPVYRHTFWQFRHENPQTRVGGPPPEGLPGFNSGVMLLNLEAMRQSPLYSRLLEPAQVQQLADKYHFRGHLGDQDFFTMIGMEHPKLFHVLDCTWNRQLCTWWRDHGYSDVFEAYFRCEGHVKIYHGNCNTPIPED [XXYLT1] | -0.0927 | 54.9 | 54.7 | -0.0858 | -1.07 | -1.02 |
| MANVSKKVSWSGRDRDDEEAAPLLRRTARPGGGTPLLNGAGPGAARQSPRSALFRVGHMSSVELDDELLDPDMDPPHPFPKEIPHNEKLLSLKYESLDYDNSENQLFLEEERRINHTAFRTVEIKRWVICALIGILTGLVACFIDIVVENLAGLKYRVIKGNIDKFTEKGGLSFSLLLWATLNAAFVLVGSVIVAFIEPVAAGSGIPQIKCFLNGVKIPHVVRLKTLVIKVSGVILSVVGGLAVGKEGPMIHSGSVIAAGISQGRSTSLKRDFKIFEYFRRDTEKRDFVSAGAAAGVSAAFGAPVGGVLFSLEEGASFWNQFLTWRIFFASMISTFTLNFVLSIYHGNMWDLSSPGLINFGRFDSEKMAYTIHEIPVFIAMGVVGGVLGAVFNALNYWLTMFRIRYIHRPCLQVIEAVLVAAVTATVAFVLIYSSRDCQPLQGGSMSYPLQLFCADGEYNSMAAAFFNTPEKSVVSLFHDPPGSYNPLTLGLFTLVYFFLACWTYGLTVSAGVFIPSLLIGAAWGRLFGISLSYLTGAAIWADPGKYALMGAAAQLGGIVRMTLSLTVIMMEATSNVTYGFPIMLVLMTAKIVGDVFIEGLYDMHIQLQSVPFLHWEAPVTSHSLTAREVMSTPVTCLRRREKVGVIVDVLSDTASNHNGFPVVEHADDTQPARLQGLILRSQLIVLLKHKVFVERSNLGLVQRRLRLKDFRDAYPRFPPIQSIHVSQDERECTMDLSEFMNPSPYTVPQEASLPRVFKLFRALGLRHLVVVDNRNQVVGLVTRKDLARYRLGKRGLEELSLAQT [CLCN7] | -0.189 | 52.9 | 52.6 | -0.116 | 0.135 | -0.102 |
| MLKPQPLQQPSQPQQPPPTQQAVARRPPGGTSPPNGGLPGPLATSAAPPGPPAAASPCLGPVAAAGSGLRRGAEGILAPQPPPPQQHQERPGAAAIGSARGQSTGKGPPQSPVFEGVYNNSRMLHFLTAVVGSTCDVKVKNGTTYEGIFKTLSSKFELAVDAVHRKASEPAGGPRREDIVDTMVFKPSDVMLVHFRNVDFNYATKDKFTDSAIAMNSKVNGEHKEKVLQRWEGGDSNSDDYDLESDMSNGWDPNEMFKFNEENYGVKTTYDSSLSSYTVPLEKDNSEEFRQRELRAAQLAREIESSPQYRLRIAMENDDGRTEEEKHSAVQRQGSGRESPSLASREGKYIPLPQRVREGPRGGVRCSSSRGGRPGLSSLPPRGPHHLDNSSPGPGSEARGINGGPSRMSPKAQRPLRGAKTLSSPSNRPSGETSVPPPPAVGRMYPPRSPKSAAPAPISASCPEPPIGSAVPTSSASIPVTSSVSDPGVGSISPASPKISLAPTDVKELSTKEPGRTLEPQELARIAGKVPGLQNEQKRFQLEELRKFGAQFKLQPSSSPENSLDPFPPRILKEEPKGKEKEVDGLLTSEPMGSPVSSKTESVSDKEDKPPLAPSGGTEGPEQPPPPCPSQTGSPPVGLIKGEDKDEGPVAEQVKKSTLNPNAKEFNPTKPLLSVNKSTSTPTSPGPRTHSTPSIPVLTAGQSGLYSPQYISYIPQIHMGPAVQAPQMYPYPVSNSVPGQQGKYRGAKGSLPPQRSDQHQPASAPPMMQAAAAAGPPLVAATPYSSYIPYNPQQFPGQPAMMQPMAHYPSQPVFAPMLQSNPRMLTSGSHPQAIVSSSTPQYPSAEQPTPQALYATVHQSYPHHATQLHAHQPQPATTPTGSQPQSQHAAPSPVQHQAGQAPHLGSGQPQQNLYHPGALTGTPPSLPPGPSAQSPQSSFPQPAAVYAIHHQQLPHGFTNMAHVTQAHVQTGITAAPPPHPGAPHPPQVMLLHPPQSHGGPPQGAVPQSGVPALSASTPSPYPYIGHPQGEQPGQAPGFPGGADDRIREFSLAGGIWHGRAEGLQVGQDARVLGGE [ATXN2L] | -0.0191 | 52.3 | 53.2 | 0.367 | -0.388 | -1.51 |
